In article PMC11962071 (Nature Communications, 2025):

Key:
[1] = target: Drosophila melanogaster calmodulin (dCaM), recombinant (Drosophila melanogaster, UniProt P62152 1-149); experiment: ITC
[2] = target: Mus musculus calmodulin (mCaM), recombinant (Mus musculus, UniProt P0DP27 1-149); experiment: crystal structure

Binder	fold decrease in affinity against the wild type [1] [fold]	binding result [2]
MDENAIRAAIFEQKWYRRHQARREM (domain or fragment) [RDGC IQ (aa 1-25) I12E]	236	–
AAALIQRWYRRYMARLEM [mPPEF2 IQ (aa 22-39)]	–	binds
